B1: Homeobox protein SIX5 (Homo sapiens), Q8N196 (parent)
chain: MATLPAEPSAGPAAGGEAVAAAAATEEEEEEARQLLQTLQAAEGEAAAAAGAGAGAAAAGAEGPGSPGVPGSPPEAASEPPTGLRFSPEQVACVCEALLQAGHAGRLSRFLGALPPAERLRGSDPVLRARALVAFQRGEYAELYRLLESRPFPAAHHAFLQDLYLRARYHEAERARGRALGAVDKYRLRKKFPLPKTIWDGEETVYCFKERSRAALKACYRGNRYPTPDEKRRLATLTGLSLTQVSNWFKNRRQRDRTGAGGGAPCKSESDGNPTTEDESSRSPEDLERGAAPVSAEAAAQGSIFLAGTGPPAPCPASSSILVNGSFLAASGSPAVLLNGGPVIINGLALGEASSLGPLLLTGGGGAPPPQPSPQGASETKTSLVLDPQTGEVRLEEAQSEAPETKGAQVAAPGPALGEEVLGPLAQVVPGPPTAATFPLPPGPVPAVAAPQVVPLSPPPGYPTGLSPTSPLLNLPQVVPTSQVVTLPQAVGPLQLLAAGPGSPVKVAAAAGPANVHLINSGVGVTALQLPSATAPGNFLLANPVSGSPIVTGVALQQGKIILTATFPTSMLVSQVLPPAPGLALPLKPETAISVPEGGLPVAPSPALPEAHALGTLSAQQPPPAAATTSSTSLPFSPDSPGLLPNFPAPPPEGLMLSPAAVPVWSAGLELSAGTEGLLEAEKGLGTQAPHTVLRLPDPDPEGLLLGATAGGEVDEGLEAEAKVLTQLQSVPVEEPLEL
partner: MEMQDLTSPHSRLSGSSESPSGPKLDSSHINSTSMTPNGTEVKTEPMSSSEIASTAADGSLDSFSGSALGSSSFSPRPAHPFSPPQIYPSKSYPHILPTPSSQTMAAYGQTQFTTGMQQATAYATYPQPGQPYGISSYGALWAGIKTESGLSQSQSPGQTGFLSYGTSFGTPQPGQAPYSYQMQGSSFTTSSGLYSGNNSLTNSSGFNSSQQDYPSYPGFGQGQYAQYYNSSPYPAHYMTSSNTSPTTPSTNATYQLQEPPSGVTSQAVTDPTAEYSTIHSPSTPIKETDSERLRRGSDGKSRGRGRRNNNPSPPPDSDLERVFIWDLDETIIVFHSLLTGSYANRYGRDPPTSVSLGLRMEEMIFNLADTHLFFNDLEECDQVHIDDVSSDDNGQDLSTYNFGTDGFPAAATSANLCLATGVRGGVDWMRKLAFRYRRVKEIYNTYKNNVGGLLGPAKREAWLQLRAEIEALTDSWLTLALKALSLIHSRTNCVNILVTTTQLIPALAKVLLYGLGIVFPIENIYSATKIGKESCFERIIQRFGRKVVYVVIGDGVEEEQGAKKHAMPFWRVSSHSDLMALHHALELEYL

Variants of: B1
Settings: with eya1_mouse Eya1, P97767

Variant	effect of a mutation on the interaction
A158T	decreasing interaction
T552M	decreasing interaction

From IntAct's records for PubMed 17357085
